Test results reported in article PMC6191456 (Scientific Reports, 2018).

B1: ParD antitoxin of the parDE system from the broad host range plasmid RK2 (natural protein, UniProt P22995 1-83, looked up)
chain: MSRLTIDMTDQQHQSLKALAALQGKTIKQYALERLFPGDADADQAWQELKTMLGNRINDGLAGKVSTKSVGEILDEELSGDRA
notes: the construct is not described for the SPR; source: purified by a published protocol [30]
B2: ParD-ParE complex (preincubated ParD and ParE proteins) (complex)
chain 1: B1 chain
chain 2: MTAYILTAEAEADLRGIIRYTRREWGAAQVRRYIAKLEQGIARLAAGEGPFKDMSELFPALRMARCEHHYVFCLPRAGEPALVVAILHERMDLMTRLADRLKG
notes: the ParD2-ParE2 make-up is cited from earlier work and not measured here; also called ParD-ParE heterotetamer; ParDE complex; source: purified ParD (200 nM) preincubated with increasing concentrations of purified ParE; copies: 2 + 2
B3: ParE toxin of the parDE system from the broad host range plasmid RK2 (natural protein)
chain: B2 chain 2
notes: also called GST-ParE

Tests used:
Conditions in all cases: both partners purified
[1] = target: B3; test: SPR; BIAcore 2000; ClpA immobilised on a CM5 chip; ParD (200 nM) injected to pre-form the ClpA-ParD complex, then ParE (200 nM) injected; ParD or buffer as controls; HBS-EP buffer with 10 mM magnesium acetate and 2 mM ATP
[2] = target: T1, ClpA, the ATPase unit of ClpAP protease (E. coli, UniProt P0ABH9 1-758); test: SPR; BIAcore 2000; ParD or ParE immobilised on a CM5 chip, ClpA injected; HBS-EP buffer with 10 mM magnesium acetate and 2 mM ATP; flow 15 µl/min
T1 construct: ClpA, ATP-dependent unfoldase subunit of the ClpAP protease, E. coli; also called ClpA ATPase; source: purified by a published protocol [55]
T1 sequence (looked up): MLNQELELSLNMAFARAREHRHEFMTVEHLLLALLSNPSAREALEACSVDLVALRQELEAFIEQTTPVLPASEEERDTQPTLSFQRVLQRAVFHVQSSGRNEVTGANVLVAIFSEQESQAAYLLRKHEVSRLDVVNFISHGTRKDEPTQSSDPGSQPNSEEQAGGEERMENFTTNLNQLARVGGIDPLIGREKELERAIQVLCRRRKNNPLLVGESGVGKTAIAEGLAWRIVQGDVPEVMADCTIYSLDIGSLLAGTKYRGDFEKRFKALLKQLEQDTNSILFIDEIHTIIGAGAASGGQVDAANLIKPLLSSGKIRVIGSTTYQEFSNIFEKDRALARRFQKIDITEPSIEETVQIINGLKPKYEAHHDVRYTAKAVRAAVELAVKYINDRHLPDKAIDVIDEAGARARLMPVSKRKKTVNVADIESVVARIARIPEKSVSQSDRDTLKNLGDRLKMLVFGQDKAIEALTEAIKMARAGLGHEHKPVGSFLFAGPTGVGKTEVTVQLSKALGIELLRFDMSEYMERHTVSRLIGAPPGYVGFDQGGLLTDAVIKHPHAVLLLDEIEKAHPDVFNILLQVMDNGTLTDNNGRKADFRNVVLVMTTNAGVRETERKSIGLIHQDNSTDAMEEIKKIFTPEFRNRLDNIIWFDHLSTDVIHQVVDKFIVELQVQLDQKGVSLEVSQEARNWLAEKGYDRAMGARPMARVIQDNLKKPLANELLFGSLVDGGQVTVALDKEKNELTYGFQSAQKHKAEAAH

[3] = target: T1, ClpA, the ATPase unit of ClpAP protease; test: SPR; BIAcore 2000; ClpA immobilised on a CM5 chip; mixture of ParD (200 nM) preincubated with increasing concentrations of ParE injected; HBS-EP buffer with 10 mM magnesium acetate and 2 mM ATP
[4] = target: T2, pre-formed ClpA-ParD complex (E. coli | plasmid RK2, UniProt P0ABH9;P22995); test: SPR; BIAcore 2000; ClpA immobilised on a CM5 chip; ParD (200 nM) injected to pre-form the ClpA-ParD complex, then ParE (200 nM) injected; ParD or buffer as controls; HBS-EP buffer with 10 mM magnesium acetate and 2 mM ATP
T2 construct: also called ParD-ClpA complex; source: formed on the sensor chip: purified ParD (200 nM) injected onto immobilised purified ClpA
T2 sequence 1: T1 sequence (looked up)
T2 sequence 2: B1 chain

B1: binds [1]; binds [2].

B2: binds [3].

B3: binds [4].
